The supplement of paper PMC10126150
± gives the standard deviation of the averaged measurements.

tested on: ATP; assay: switch fluorescence ratio, 500 uM ATP over buffer (Cy3 cluster intensity, sum of 5 cycles each) (fold (ratio)); higher = stronger signal-on switching upon ATP binding; sequences stand for … in TCGTCGGCAGCGTCAGATGTGTATAAGAGACAGTTTTTTTTTTTTTTTTTTTTTTTTT…TC; details: aptamer strand: ATP DNA aptamer (quencher-CACCTGGGGGAGTATTGCGGAGGAAGG + anchor), 100 nM annealed; ATP concentration: 500 uM
Procedure, shortened: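 The quencher-labelled ATP aptamer, at 100 nM, was annealed to Cy3-labelled switching-strand clusters on a modified Illumina MiSeq flow-cell. The clusters were imaged in selection buffer, then after 15 min with 500 uM ATP at 22 °C, and this buffer/ATP cycle ran five times with NaOH stripping and re-annealing between runs. Per-cluster fluorescence ratios, summed target-cycle over summed buffer-cycle Cy3 intensity, were averaged per switch-domain sequence. Clusters outside 100-1000 RFU were excluded.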
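Also: ATP exposure 15 min at 22 °C before imaging.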

In order of falling switch fluorescence ratio:
1. GGCGCAATTT  2.4 ± 0.27
2. GGCCAGGGTG  2.29 ± 0.07
3. GGAGGAGTTT  1.65 ± 0.92
4. GGCAATATTT  1.2 ± 0.061
5. GGATGCAATG  1.16 ± 0.025
6. GGAGTCCAGG  1.15 ± 0.032
7. GGCCCGCGTT  1.11 ± 0.065
8. GGCTGGCATT  1.11 ± 0.15
9. GGATCGTTCC  1.1 ± 0.017
10. GGATTAATG  1.1 ± 0.12
11. GGCCCCCGGT  1.1 ± 0.068
12. GGAGGGGGGA  1.09 ± 0.24
13. GGAGGCGGGG  1.08 ± 0.18
14. GGATACGGTG  1.08 ± 0.061
15. GGCTTGGGTG  1.08 ± 0.032
16. GGAGAGGACG  1.07 ± 0.09
17. GGAGGGGAAG  1.07 ± 0.14
18. GGCAGAGATC  1.06 ± 0.077
19. GGAGAGGTTT  1.05 ± 0.059
20. GGAGCTTTCA  1.05 ± 0.088
21. GGATGGGAGG  1.046 ± 0.0092
22. GGCAGAATAA  1.05 ± 0.13
23. GGCAGCTTTT  1.05 ± 0.088
24. GGCGCAACGG  1.05 ± 0.024
25. GGCGTCCTCT  1.05 ± 0.034
26. GGCTTTTTTA  1.05 ± 0.028
27. GGAGATAGGT  1.04 ± 0.038
28. GGAGTCATGG  1.045 ± 0.0073
29. GGCAACGAAA  1.039 ± 0.0099
30. GGCCTTGTGT  1.0357 ± 0.00094
31. GGCGGCGCGT  1.04 ± 0.019
32. GGCGGGGGTG  1.04 ± 0.065
33. GGCGGGTAGA  1.043 ± 0.0093
34. GGCGGTTACT  1.04 ± 0.015
35. GGCTCAGGTA  1.04 ± 0.013
36. GGGAAAAGGT  1.04 ± 0.021
37. GGAGGGACGG  1.029 ± 0.009
38. GGAGGTCTAC  1.03 ± 0.014
39. GGAGTGGGAT  1.03 ± 0.034
40. GGATAGGATT  1.025 ± 0.0054
41. GGATATGATC  1.03 ± 0.031
42. GGATGTTTTG  1.03 ± 0.015
43. GGATTAAAGG  1.03 ± 0.013
44. GGCAAAGCGT  1.03 ± 0.025
45. GGCAATTGTA  1.03 ± 0.027
46. GGCAGCCGGC  1.03 ± 0.041
47. GGCCGTATCT  1.03 ± 0.044
48. GGCCTGGTTT  1.03 ± 0.057
49. GGCTAGACGT  1.031 ± 0.0023
50. GGCTCGGGGG  1.03 ± 0.029
51. GGCTGCTTTC  1.03 ± 0.055
52. GGGAAACGGT  1.03 ± 0.011
53. GGAGACGTTA  1.02 ± 0.052
54. GGAGCGGGGG  1.02 ± 0.014
55. GGAGGGAGGG  1.02 ± 0.059
56. GGAGTAGCAG  1.02 ± 0.074
57. GGAGTCCGTT  1.02 ± 0.046
58. GGATAAAAAT  1.02 ± 0.025
59. GGATAAATGC  1.02 ± 0.043
60. GGATAACGGG  1.02 ± 0.023
61. GGATACGTTG  1.02 ± 0.052
62. GGATGGGGCT  1.02 ± 0.03
63. GGATGGGGGA  1.02 ± 0.03
64. GGATTTATTG  1.02 ± 0.022
65. GGATTTGTGA  1.02 ± 0.022
66. GGCAACCATA  1.02 ± 0.032
67. GGCACAGATG  1.02 ± 0.015
68. GGCCCTGCGG  1.02 ± 0.025
69. GGCCGAGGTC  1.02 ± 0.013
70. GGCCTGGATC  1.02 ± 0.057
71. GGCCTGTGTG  1.02 ± 0.041
72. GGCGCCGGGC  1.02 ± 0.022
73. GGCGGGAGGA  1.02 ± 0.025
74. GGCGTGTTGG  1.02 ± 0.045
75. GGCGTTGTCC  1.02 ± 0.044
76. GGCTGCCGGG  1.02 ± 0.025
77. GGGAAAAGGA  1.018 ± 0.0094
78. GGAGAGGGCT  1.01 ± 0.024
79. GGAGCCCGGT  1.01 ± 0.029
80. GGAGCCTGGT  1.01 ± 0.022
81. GGAGGAGAGG  1.01 ± 0.04
82. GGAGTCTTGT  1.01 ± 0.03
83. GGATGGTTGG  1.012 ± 0.0068
84. GGATTAGGGA  1.01 ± 0.03
85. GGATTCATGG  1.01 ± 0.021
86. GGCAAAGGGG  1.01 ± 0.041
87. GGCAGTTTGG  1.01 ± 0.023
88. GGCATAAGTA  1.008 ± 0.0054
89. GGCATTTTAT  1.01 ± 0.061
90. GGCCCGATTT  1.01 ± 0.024
91. GGCGCTGTGA  1.01 ± 0.022
92. GGCGGCATCT  1.01 ± 0.023
93. GGCGGGGAGG  1.01 ± 0.033
94. GGCGGTTAAG  1.013 ± 7.9e-05
95. GGCGTCAGGA  1.01 ± 0.027
96. GGCGTCTTCC  1.01 ± 0.037
97. GGCTTAATGG  1.01 ± 0.023
98. GGAGACGGTT  1 ± 0.051
99. GGAGGAAAGT  1 ± 0.029
100. GGAGTGATTT  1 ± 0.017
101. GGAGTGTTGG  1.002 ± 0.0051
102. GGAGTTAGGC  1 ± 0.04
103. GGATAGTCGG  1 ± 0.028
104. GGATTAAATT  0.9996 ± 0.0019
105. GGATTTGAGG  1 ± 0.026
106. GGCAGGAAAG  1 ± 0.011
107. GGCAGGCGGA  1 ± 0.012
108. GGCAGGGGCT  1 ± 0.044
109. GGCATGAGGT  1 ± 0.016
110. GGCCCCGGAT  1 ± 0.07
111. GGCCCGTGCA  1.004 ± 0.0015
112. GGCCTGGGTA  1 ± 0.031
113. GGCCTTATTG  1 ± 0.031
114. GGCGAGCTGG  0.9997 ± 0.0034
115. GGCGAGGTGT  1 ± 0.034
116. GGCGCTTATA  1 ± 0.042
117. GGCGTCAGAC  1 ± 0.031
118. GGCTAAAAAC  1 ± 0.039
119. GGCTAGAAAA  1 ± 0.0099
120. GGCTATCTGT  1 ± 0.047
121. GGCTCAGAGA  1.004 ± 0.0045
122. GGCTTGGTGT  1 ± 0.013
123. GGAGGGGAGT  0.999 ± 0.014
124. GGAGTTTAAA  0.999 ± 0.043
125. GGCTACAGGG  0.999 ± 0.011
126. GGCTTCTGAT  0.999 ± 0.022
127. GGAGGGGATC  0.998 ± 0.022
128. GGCATCGTAG  0.998 ± 0.021
129. GGGAAAATTA  0.997 ± 0.019
130. GGAGAGGGGC  0.996 ± 0.091
131. GGATCTTAGT  0.996 ± 0.013
132. GGATGTATCT  0.995 ± 0.012
133. GGATATAGCC  0.994 ± 0.013
134. GGATGGGTGC  0.9939 ± 0.0091
135. GGCAGAAATG  0.994 ± 0.011
136. GGCAGCGTGG  0.994 ± 0.041
137. GGATCTTTAT  0.9932 ± 0.0096
138. GGATTTGGAG  0.993 ± 0.024
139. GGCCTGAAAC  0.9929 ± 0.0037
140. GGCTCTCGTA  0.992 ± 0.012
141. GGCCAATAAT  0.991 ± 0.016
142. GGAGTTCAGG  0.9905 ± 0.0024
143. GGATAAGGAG  0.99 ± 0.051
144. GGCCCGGTTT  0.99 ± 0.029
145. GGCTTTTTGG  0.99 ± 0.02
146. GGATGCATAT  0.9894 ± 0.0044
147. GGATTAACTA  0.9887 ± 0.0061
148. GGCTCTTCGG  0.989 ± 0.04
149. GGCTTGGAAT  0.989 ± 0.011
150. GGGAAAGGAA  0.989 ± 0.018
151. GGAGGGCAGG  0.9882 ± 0.0096
152. GGAGGGTGTC  0.988 ± 0.044
153. GGATTCCGGG  0.988 ± 0.027
154. GGATTTGGGG  0.9878 ± 0.0073
155. GGCAGTCCGG  0.9876 ± 0.0024
156. GGGAAACTTG  0.988 ± 0.017
157. GGCCTTAGGG  0.987 ± 0.013
158. GGAGGGCCTG  0.986 ± 0.013
159. GGATAGATGG  0.986 ± 0.02
160. GGCGCCGTTT  0.986 ± 0.023
161. GGATATAATG  0.985 ± 0.019
162. GGATGGCGGT  0.9846 ± 0.0069
163. GGCATATTGT  0.985 ± 0.025
164. GGCGTACAAA  0.985 ± 0.019
165. GGCGTTGTTC  0.984 ± 0.034
166. GGCATTTAAA  0.983 ± 0.024
167. GGCTGGGCGA  0.983 ± 0.02
168. GGAGAGGGGG  0.982 ± 0.027
169. GGATGAGTGT  0.982 ± 0.038
170. GGCCGATTTT  0.9813 ± 0.0042
171. GGCTGTGTTT  0.981 ± 0.028
172. GGCGAATGGG  0.98 ± 0.041
173. GGATCCGTTG  0.978 ± 0.021
174. GGATTTGGTA  0.978 ± 0.032
175. GGCGCCGTTG  0.978 ± 0.019
176. GGCATCGGTT  0.977 ± 0.027
177. GGCATTAGGT  0.977 ± 0.042
178. GGAGAGCGCG  0.976 ± 0.067
179. GGATTTAAAT  0.976 ± 0.042
180. GGCTGAGCGG  0.976 ± 0.027
181. GGCTTGGGGC  0.9756 ± 0.0032
182. GGCGTTTATC  0.9746 ± 0.0018
183. GGCAGGGCTG  0.974 ± 0.051
184. GGCTAAAGCG  0.974 ± 0.012
185. GGCGAAGGCC  0.973 ± 0.02
186. GGCTTGGAAA  0.973 ± 0.011
187. GGCTCATTAT  0.9719 ± 0.0034
188. GGCGGCCGAT  0.9707 ± 0.005
189. GGAGTCGTTG  0.968 ± 0.011
190. GGCGGGGCTT  0.968 ± 0.025
191. GGCTTGGGAA  0.968 ± 0.027
192. GGAGGCCATG  0.967 ± 0.01
193. GGCAGATGAC  0.9674 ± 0.0031
194. GGCCTGGGTT  0.967 ± 0.0098
195. GGATGTGCG  0.961 ± 0.05
196. GGCTGGATGG  0.961 ± 0.014
197. GGATCGTCGG  0.96 ± 0.019
198. GGCATAGCCC  0.954 ± 0.024
199. GGCGAGTATG  0.9522 ± 0.0037
200. GGAGGAGCTG  0.95 ± 0.042
